Data on one molecule can be found in US20240245771A1 (XUZHOU MEDICAL UNIVERSITY, published 2024).

The target of this assay is T1, B7H3 target antigen (UniProt Q5ZPR3 29-466, limits assumed).
T1 construct: Control antigen is called 'other biotin-free antigen', which hints that this antigen may be biotinylated; also called B7H3 antigen; B7-H3 antigen
T1 sequence (looked up): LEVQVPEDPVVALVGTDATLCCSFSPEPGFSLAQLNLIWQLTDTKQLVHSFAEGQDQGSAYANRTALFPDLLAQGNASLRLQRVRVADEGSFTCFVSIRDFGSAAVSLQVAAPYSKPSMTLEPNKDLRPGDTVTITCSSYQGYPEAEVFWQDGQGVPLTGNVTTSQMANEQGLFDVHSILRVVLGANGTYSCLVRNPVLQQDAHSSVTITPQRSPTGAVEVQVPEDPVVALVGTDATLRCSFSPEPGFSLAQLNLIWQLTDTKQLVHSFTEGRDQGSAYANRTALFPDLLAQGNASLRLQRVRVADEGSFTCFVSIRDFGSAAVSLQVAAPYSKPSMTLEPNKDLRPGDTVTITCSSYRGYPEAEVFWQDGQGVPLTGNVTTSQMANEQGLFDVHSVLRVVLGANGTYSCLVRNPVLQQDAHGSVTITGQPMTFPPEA
Briefly: Biacore SPR, antibody captured on Protein A chip, antigen flowed, Langmuir fit.

Description: The B7-H3 antigen was allowed to flow over the chip surface using a series of concentration gradients. The binding time was 120 s, and the dissociation time was 120 s. After the cycle dissociation was completed, the biochip was washed with glycine-hydrochloric acid (pH=1.5) buffer, the sample injection was performed at 30 μL/min, and regeneration was performed for 30 s. Reaction signals were detected in real time using a Biacore instrument, and thus binding and dissociation curves were obtained.
The data obtained from the experiment were fitted with the Langmuir model using GE software.

B1: purified B7H3-02 scFv protein (prokaryotic expression, pET-22b) (scFv)
scFv: EVQLFQSGGGLVQPGGSLRLSCAASGFTFSSYAMSWVRQAPGKGLEWVSAISGSGGSTYYADSVKGRFTISRDNSKNTLYLQMNSLRAEDTAVYYCARGVGRGFDYWGQGTTVTVSSSGGGSGGGGSGGGGSDIQLTQSPSSLSASVGDRVTITCRASQSISIYLNWYRQQPGKAPKLLIYAASSLQSGVPSRFSGSGSGTDFTLTISSLQPEDFATYFCQQTYSTPPWTFGQGTKVDIK
notes: The Biacore experiment speaks of 'purified B7H3-02 antibodies' captured on a Protein A chip; also called B7H3-02 scFv antibody; B7H3-02 antibody; not shown: His tag implied (detected with His antibodies, pET-22b vector)
Molecule B1 gave a Kd of 27.8 nM. In other words, the double-digit nanomolar range.
